The target in experiment [1] is Plexin A4 receptor expressed on transfected COS-7 cells. Put plainly: AP-conjugated ligand on COS-7 cells expressing Plexin A4, cell-bound AP activity with p-nitrophenyl phosphate, Scatchard plot (FIG. 4C).
For experiment [2] the target is unchanged. The experiment in a line: AP-conjugated ligand binding curves on COS-7 cells expressing Plexin A4, estimated affinity (FIG. 4E).
Experiment [3] has the same target. Put plainly: cell-binding assay: AP-conjugated ligand on COS-7 cells expressing Plexin A4, p-nitrophenyl phosphate, absorbance at 405 nm [cont. 1). B].
In experiment [4] the target is PlexinA4 of human umbilical vein endothelial cells (human) (UniProt Q9HCM2). The experiment in a line: cell-based or functional assay.
UniProt Q9HCM2, sequence (Q9HCM2 24-1894): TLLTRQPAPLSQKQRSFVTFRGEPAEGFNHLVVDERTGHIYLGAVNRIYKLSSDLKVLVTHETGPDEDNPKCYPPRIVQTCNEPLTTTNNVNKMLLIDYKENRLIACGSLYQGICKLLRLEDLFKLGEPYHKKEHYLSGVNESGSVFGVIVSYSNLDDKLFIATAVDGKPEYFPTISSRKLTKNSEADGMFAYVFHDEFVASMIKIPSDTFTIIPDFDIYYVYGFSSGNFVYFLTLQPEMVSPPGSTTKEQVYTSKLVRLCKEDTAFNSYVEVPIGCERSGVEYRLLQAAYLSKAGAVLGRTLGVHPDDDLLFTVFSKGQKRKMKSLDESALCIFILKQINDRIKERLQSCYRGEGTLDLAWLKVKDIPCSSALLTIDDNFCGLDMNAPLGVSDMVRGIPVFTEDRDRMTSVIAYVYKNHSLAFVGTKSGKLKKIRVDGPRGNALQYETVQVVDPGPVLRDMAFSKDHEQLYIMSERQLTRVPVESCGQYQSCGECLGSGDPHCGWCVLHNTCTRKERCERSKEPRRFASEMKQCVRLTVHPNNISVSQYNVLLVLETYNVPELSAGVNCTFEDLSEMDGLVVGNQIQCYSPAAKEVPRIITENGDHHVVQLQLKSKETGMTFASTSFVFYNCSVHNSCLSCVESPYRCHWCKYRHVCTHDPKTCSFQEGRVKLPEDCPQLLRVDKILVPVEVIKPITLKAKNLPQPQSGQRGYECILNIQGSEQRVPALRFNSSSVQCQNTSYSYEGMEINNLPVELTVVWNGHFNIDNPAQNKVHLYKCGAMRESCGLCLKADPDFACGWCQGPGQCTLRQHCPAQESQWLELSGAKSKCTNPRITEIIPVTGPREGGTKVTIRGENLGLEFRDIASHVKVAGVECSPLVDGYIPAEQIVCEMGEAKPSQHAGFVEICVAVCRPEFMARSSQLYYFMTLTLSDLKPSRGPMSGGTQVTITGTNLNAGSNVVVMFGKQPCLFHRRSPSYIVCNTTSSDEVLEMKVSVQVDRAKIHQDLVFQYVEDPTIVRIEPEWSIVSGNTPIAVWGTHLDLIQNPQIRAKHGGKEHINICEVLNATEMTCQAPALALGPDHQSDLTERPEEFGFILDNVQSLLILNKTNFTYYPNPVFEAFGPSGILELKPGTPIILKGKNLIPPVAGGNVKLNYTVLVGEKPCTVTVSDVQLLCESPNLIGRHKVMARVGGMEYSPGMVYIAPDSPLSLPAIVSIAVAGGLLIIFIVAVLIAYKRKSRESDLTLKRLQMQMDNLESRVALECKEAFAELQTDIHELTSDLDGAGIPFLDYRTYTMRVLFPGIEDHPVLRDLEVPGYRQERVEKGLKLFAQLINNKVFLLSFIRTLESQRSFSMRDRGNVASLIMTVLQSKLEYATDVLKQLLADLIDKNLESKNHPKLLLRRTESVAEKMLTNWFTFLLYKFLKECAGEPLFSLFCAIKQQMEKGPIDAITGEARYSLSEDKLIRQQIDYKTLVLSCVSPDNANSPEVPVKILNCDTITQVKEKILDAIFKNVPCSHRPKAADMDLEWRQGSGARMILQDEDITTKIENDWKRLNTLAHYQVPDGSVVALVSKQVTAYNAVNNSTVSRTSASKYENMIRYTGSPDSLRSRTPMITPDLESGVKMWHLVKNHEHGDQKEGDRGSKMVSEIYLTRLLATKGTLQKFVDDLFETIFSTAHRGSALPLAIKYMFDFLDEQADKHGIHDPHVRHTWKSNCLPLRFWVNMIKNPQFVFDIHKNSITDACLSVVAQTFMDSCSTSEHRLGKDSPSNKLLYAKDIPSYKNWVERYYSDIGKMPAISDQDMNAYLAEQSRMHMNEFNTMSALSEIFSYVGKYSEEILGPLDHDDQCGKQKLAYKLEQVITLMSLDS
Experiment [5] addresses Nrp1 expressed on transfected COS cells. The experiment in a line: AP-conjugated ligand on COS cells expressing Nrp1, cell-bound AP activity with p-nitrophenyl phosphate, binding curve (FIG. 4D).

In general, Kd refers to a measure of binding affinity in units of concentration. A word on the EC50 (read off the curve): it is the concentration at which the effect is half-maximal. A lower EC50 (read off the curve) goes with an effect from little substance. Take “alkaline phosphatase (AP)-conjugated mutant Sema3A A106K ΔIg-b (from UniProt P05187 23-511) (ligand)”: the Kd in experiment [1] and in experiment [2] was 700 pM throughout. In addition, in experiment [3], the EC50 (read off the curve) came to 500 pM.

On to “alkaline phosphatase (AP)-conjugated mutant Sema3A ΔIg-b (from UniProt P05187 23-511) (ligand)”, for which, in experiment [2], the Kd is 200000 pM.

B1: mouse Fc-tagged Sema3A A106K ΔIg-b (Fc fusion)
chain: NYANGKNNVPRLKLSYKEMLESNNVITFNGLANSSSYHTFLLDEERSRLYVGAKDHIFSFNLVNIKDFQKIVWPVSYTRRDECKWKGKDILKECANFIKVLEAYNQTHLYACGTGAFHPICTYIEVGHHPEDNIFKLQDSHFENGRGKSPYDPKLLTASLLIDGELYSGTAADFMGRDFAIFRTLGHHHPIRTEQHDSRWLNDPRFISAHLIPESDNPEDDKVYFFFRENAIDGEHSGKATHARIGQICKNDFGGHRSLVNKWTTFLKARLICSVPGPNGIDTHFDELQDVFLMNSKDPKNPIVYGVFTTSSNIFKGSAVCMYSMSDVRRVFLGPYAHRDGPNYQWVPYQGRVPYPRPGTCPSKTFGGFDSTKDLPDDVITFARSHPAMYNPVFPINNRPIMIKTDVNYQFTQIVVDRVDAEDGQYDVMFIGTDVGTVLKVVSVPKETWHDLEEVLLEEMTVFREPTTISAMELSTKQQQLYIGSTAGVAQLPLHRCDIYGKACAECCLARDPYCAWDGSSCSRYFPTGCKPCICTVPEVSSVFIFPPKPKDVLTITLTPKVTCVVVDISKDDPEVQFSWFVDDVEVHTAQTQPREEQFNSTFRSVSELPIMHQDWLNGKEFKCRVNSAAFPAPIEKTISKTKGRPKAPQVYTIPPPKEQMAKDKVSLTCMITDFFPEDITVEWQWNGQPAENYKNTQPIMDTDGSYFVYSKLNVQKSNWEAGNTFTCSVLHEGLHNHHTEKSLSHSPGK
B1: in experiment [4], the Relative migration of ECs towards type I collagen at 3 h:45 m, 0.2 nM (xCELLigence) is 60 % of control; the Relative migration of ECs towards type I collagen at 3 h:45 m, 0.9 nM (xCELLigence) is 64 % of control; the Relative migration of ECs towards type I collagen at 3 h:45 m, 3.5 nM (xCELLigence) is 55 % of control; the activation of ERK 1/2 phosphorylation in ECs (Western blot, 15 minutes) came out at 3.9 fold.

B2: alkaline phosphatase (AP)-conjugated Sema3A WT (ligand, not shown: large carriers)
chain: NYANGKNNVPRLKLSYKEMLESNNVITFNGLANSSSYHTFLLDEERSRLYVGAKDHIFSFNLVNIKDFQKIVWPVSYTRRDECKWAGKDILKECANFIKVLEAYNQTHLYACGTGAFHPICTYIEVGHHPEDNIFKLQDSHFENGRGKSPYDPKLLTASLLIDGELYSGTAADFMGRDFAIFRTLGHHHPIRTEQHDSRWLNDPRFISAHLIPESDNPEDDKVYFFFRENAIDGEHSGKATHARIGQICKNDFGGHRSLVNKWTTFLKARLICSVPGPNGIDTHFDELQDVFLMNSKDPKNPIVYGVFTTSSNIFKGSAVCMYSMSDVRRVFLGPYAHRDGPNYQWVPYQGRVPYPRPGTCPSKTFGGFDSTKDLPDDVITFARSHPAMYNPVFPINNRPIMIKTDVNYQFTQIVVDRVDAEDGQYDVMFIGTDVGTVLKVVSVPKETWHDLEEVLLEEMTVFREPTTISAMELSTKQQQLYIGSTAGVAQLPLHRCDIYGKACAECCLARDPYCAWDGSSCSRYFPTAKRRTRRQDIRNGDPLTHCSDLQHHDNHHGPSLEERIIYGVENSSTFLECSPKSQRALVYWQFQRRNEDRKEEIRMGDHIIRTEQGLLLRSLQKKDSGNYLCHAVEHGFMQTLLKVTLEVIDTEHLEELLHKDDDGDGSKIKEMSSSMTPSQKVWYRDFMQLINHPNLNTMDEFCEQVWKRDRKQRRQRPGHSQGSSNKWKHMQESKKGRNRRTHEFERAPRSV
For the molecule B2, the Kd in experiment [2] was 7000 pM; in experiment [5], 1100 pM.

(Values after patent US20180030100A1.)
